Test results taken from patent US20250122266A1, “SMART SINGLE-DOMAIN INTRABODIES WITH PRECISION SWITCHES FOR BIOMEDICAL APPLICATIONS” (THE TEXAS A&M UNIVERSITY SYSTEM, priority 2020, published 2025).
Where two headings read alike, the source gives them in different places. Blank lines part the entries; values can stand above or below the substance they belong to.

Legend:
YFP-ORAI1 = YFP-ORAI1 (UniProt Q96D31); test: cell-based or functional assay
[1] = biological target: Recombinant SARS-COV-2 Spike RBD (SARS-COV-2) (UniProt P0DTC2)
[2] = biological target: Recombinant SARS-COV-2 Spike RBD (SARS-COV-2) (UniProt P0DTC2); test: ELISA on immobilised RBD; read as the value without caffeine
NE-tethered mCh-lamin A = NE-tethered mCh-lamin A (UniProt P02545); test: NE/NP ratio of GFP signal in HeLa cells, before and after light

Chain of mCherry-COSMO-STIM1ct (Q13586 other isoform, or with tags, fused parts or gaps): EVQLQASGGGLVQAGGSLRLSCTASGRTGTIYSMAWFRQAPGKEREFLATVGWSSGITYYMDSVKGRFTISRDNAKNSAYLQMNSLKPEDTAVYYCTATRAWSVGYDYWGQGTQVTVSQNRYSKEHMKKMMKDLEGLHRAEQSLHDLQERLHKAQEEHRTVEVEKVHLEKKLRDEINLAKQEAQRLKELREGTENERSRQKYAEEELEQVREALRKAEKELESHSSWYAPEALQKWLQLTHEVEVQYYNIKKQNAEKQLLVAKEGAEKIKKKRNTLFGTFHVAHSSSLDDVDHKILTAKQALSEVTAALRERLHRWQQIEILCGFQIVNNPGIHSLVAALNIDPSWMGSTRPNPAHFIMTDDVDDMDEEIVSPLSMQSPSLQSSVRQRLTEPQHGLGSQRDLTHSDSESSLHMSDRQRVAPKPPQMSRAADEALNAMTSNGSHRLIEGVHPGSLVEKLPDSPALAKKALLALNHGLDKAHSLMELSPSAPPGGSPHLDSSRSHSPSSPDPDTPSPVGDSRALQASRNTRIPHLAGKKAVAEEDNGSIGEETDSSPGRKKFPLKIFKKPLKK
Chain of YFP-ORAI1 (Q96D31 whole entry): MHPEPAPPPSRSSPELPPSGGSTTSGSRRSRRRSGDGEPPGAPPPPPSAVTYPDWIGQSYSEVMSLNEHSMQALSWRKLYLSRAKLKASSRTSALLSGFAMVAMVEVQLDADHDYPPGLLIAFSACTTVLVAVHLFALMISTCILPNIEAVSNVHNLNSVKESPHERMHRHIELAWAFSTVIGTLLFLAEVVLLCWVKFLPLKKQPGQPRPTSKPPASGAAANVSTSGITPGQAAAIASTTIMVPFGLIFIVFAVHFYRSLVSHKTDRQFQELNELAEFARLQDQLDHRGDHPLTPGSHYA

Substance: mCherry-COSMO-STIM1ct (from UniProt Q13586 233-685)
calcium influx (GCaMP6s) after 1 µM caffeine, activation half-life (YFP-ORAI1): 1.63 min

Substance: MBP-COSMO-VHH72
apparent binding affinity [1]: 18 nM | apparent binding affinity [2]: 29 nM

increase in the NE/NP ratio after photostimulation (NE-tethered mCh-lamin A): 10%
Substance: GFP-sunbody variant S0 (LOV2 fused to the N-terminus of LaM8) (VHH)
